Source: article PMC5694352

Columns and labels:
Test in all cases: BLI
[1] = molecular target: Man5-IgG3 Fc (human IgG3 Fc with the GlcNAc2Man5 glycoform) (human)
[2] = molecular target: High mannose (Man8-Man12) glycoform of human IgG3 Fc (human)
[3] = molecular target: GlcNAc-IgG3 Fc (human IgG3 Fc with a single GlcNAc at N297) (human)

Kd [1]: 46.5 nM
Kd [2]: 41.4 nM
koff [2]: 0.0065 s⁻¹
kon [2]: 160000 M⁻¹ s⁻¹
Kd [3]: 506 nM
koff [3]: 0.0858 s⁻¹
kon [3]: 170000 M⁻¹ s⁻¹
Substance: Fcγ receptor IIIA, high affinity polymorph (V158)
